Assay results from patent US20130171644, “COINCIDENCE DETECTION” (KING'S COLLEGE LONDON, published 2013).

Tests used:
RAR-DBD-KEK-S-EE = molecular target: T1, RAR-DBD-KEK-S-EE; assay: ELONA; RAR alone; monomeric RAR does not bind DR5; settings: tags: GST, label: 5'-biotin
T1 chain: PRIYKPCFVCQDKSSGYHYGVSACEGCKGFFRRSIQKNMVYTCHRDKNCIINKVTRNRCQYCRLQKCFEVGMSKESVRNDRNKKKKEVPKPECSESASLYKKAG
Experimental: (§1) Method: 96-well microtiter plates were coated with a-EE (Y) and a-MYC (Y) at 10 ng/μl in 100 mM NaHCO3/Na2CO3 (pH 9.6). Excess antibody was removed and wells were blocked using 3% BSA. The biodetectors were then captured in the well as indicated in figures followed by the addition of 50 μl/well of biotinylated-DR5 DNA sequence (BIO-DR5, 5 pmol/μl). Control for specificity is the non-consensus oligo (BIO-non consensus) and un-biotinylated DR5 (competitor) to establish signal specificity. Washes were performed at each step to assure the removal of unbound reagents. Streptavidin-HRP was incubated for 30 min at RT, and after three washes, binding was assessed using TMB substrate. Absorbance was measured at 450 nm. Samples are in duplicate.
(§2) ELISA assays were carried out by coating 500 ng of α-MYC and α-EE antibodies diluted in 100 mM bicarbonate buffer (50 ul/well, pH 9.6). Antibodies were coated for 2 h at RT in a microtiter plate (MaxiSorp, Nunc). The wells were then washed once with 200 ul of PBS buffer (pH 7.3) and incubated 0/N at 4° C. with 200 ul of blocking buffer (PBS+3% BSA). The biodetectors where then added at the concentration of 0.7 pmol/well (50 ul/well in 150 mM NaCl, 50 mM Tris pH 7.6, 10% glycerol and 1% BSA) and incubated for 1 h at RT. […]

[1] = molecular target: RXR-Grb2SH2-MYC + RAR-PLCgNSH2-HA-EE heterodimer; assay: ELONA; antibody- or bis-phosphopeptide-captured; peptide assay in 0.8xSSC, RT; settings: tags: GST, MYC-HIS (RXR), label: 5'-biotin
RAR-PLCgNSH2-HA-EE = molecular target: T2, RAR-PLCgNSH2-HA-EE; assay: ELONA; single reagent alone; combined RXR/RAR required for signal; settings: tags: GST, HA-EE-HIS; label: 5'-biotin
T2 chain: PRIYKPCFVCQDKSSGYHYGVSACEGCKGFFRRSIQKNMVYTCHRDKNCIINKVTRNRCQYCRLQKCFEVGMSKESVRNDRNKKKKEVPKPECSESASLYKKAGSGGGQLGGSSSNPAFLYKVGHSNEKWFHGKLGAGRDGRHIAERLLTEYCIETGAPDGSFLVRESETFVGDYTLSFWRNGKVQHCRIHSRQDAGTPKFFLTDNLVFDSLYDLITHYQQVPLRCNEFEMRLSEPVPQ

RXR-Grb2SH2-MYC = assay: as above; settings: tags: GST, MYC-HIS; label: 5'-biotin
[2] = molecular target: T3, RXR-DBD-EKE-MYC + RAR-DBD-KEK-S-EE heterodimer (UniProt P19793; SEQ:260-356,SEQ:260-363); assay: ELONA; antibody-captured detectors, streptavidin-HRP readout, RT; settings: tags: GST, label: 5'-biotin
T3 chain 1: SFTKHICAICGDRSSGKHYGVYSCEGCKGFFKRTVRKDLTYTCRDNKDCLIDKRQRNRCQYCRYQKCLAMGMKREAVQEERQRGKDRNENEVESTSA
T3 chain 2: T1 chain
Experimental: as §1, §2

RXR-DBD-EKE-MYC = molecular target: T4, RXR-DBD-EKE-MYC (UniProt P19793 SEQ:260-356); assay: ELONA; RXR alone; monomeric RXR does not bind DR5; settings: tags: GST, label: 5'-biotin
T4 chain: T3 chain 1
Experimental: as §1, §2

B1: BIO-DR5 (dsDNA)
DNA 1: TGGTATCTAGTTATTGCTCAGCGTGCCAGGTCACCGAAAGGTCAGAG
DNA 2: CTCTGACCTTTCGGTGACCTGGCACGCTGAGCAATAACTAGATACCA
B1: no binding (RAR-DBD-KEK-S-EE); binds [1]; no binding (RAR-PLCgNSH2-HA-EE). B1: no binding (RXR-Grb2SH2-MYC); binds [2]; no binding (RXR-DBD-EKE-MYC).
